Key:
[1] = molecular target: CD3 of cynomolgus monkey T cells (cynomolgus monkey, UniProt Q95LI5 22-198; Q95LI8 22-171); test: cell-based or functional assay
[2] = molecular target: T1, gpA33 on human cancer cells (human, UniProt Q99795 22-319); test: cell-based or functional assay
T1 sequence (looked up): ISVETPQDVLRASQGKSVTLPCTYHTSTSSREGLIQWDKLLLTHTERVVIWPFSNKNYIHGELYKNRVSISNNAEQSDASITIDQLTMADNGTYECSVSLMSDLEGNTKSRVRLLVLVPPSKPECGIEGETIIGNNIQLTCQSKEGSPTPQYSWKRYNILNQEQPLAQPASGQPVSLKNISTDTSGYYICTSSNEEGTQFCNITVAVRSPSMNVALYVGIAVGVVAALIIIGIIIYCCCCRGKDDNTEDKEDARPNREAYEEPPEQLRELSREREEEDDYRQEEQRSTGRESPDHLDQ

human gpA33 = molecular target: T2, human gpA33 (human, UniProt Q99795 22-235, limits assumed); test: kinetics of binding to gpA33; method not stated
T2 construct: There it is printed only as gpA33; also called A33 antigen
T2 sequence (looked up): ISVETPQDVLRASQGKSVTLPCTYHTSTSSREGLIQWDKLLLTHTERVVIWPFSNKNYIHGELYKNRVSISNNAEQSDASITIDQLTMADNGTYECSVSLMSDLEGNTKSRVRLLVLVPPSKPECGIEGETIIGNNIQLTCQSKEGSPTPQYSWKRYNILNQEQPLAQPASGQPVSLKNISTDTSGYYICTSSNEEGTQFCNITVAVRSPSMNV

CD3 of cynomolgus monkey T cells, sequence (Q95LI5 22-198 limits assumed, chain 1 of 2): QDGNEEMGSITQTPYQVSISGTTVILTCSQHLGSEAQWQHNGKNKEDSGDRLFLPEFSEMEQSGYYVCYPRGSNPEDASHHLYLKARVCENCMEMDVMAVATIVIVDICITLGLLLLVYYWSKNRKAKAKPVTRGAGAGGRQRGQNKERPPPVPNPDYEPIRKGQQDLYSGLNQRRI
CD3 of cynomolgus monkey T cells, sequence (Q95LI8 22-171 limits assumed, chain 2 of 2): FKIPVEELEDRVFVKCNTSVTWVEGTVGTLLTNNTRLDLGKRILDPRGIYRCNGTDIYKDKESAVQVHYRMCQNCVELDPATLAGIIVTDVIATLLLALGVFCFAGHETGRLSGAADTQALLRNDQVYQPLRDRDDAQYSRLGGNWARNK

B1: gpA33 × CD3 bi-specific monovalent diabody (DART-2) (bispecific antibody)
chain 1: QAVVTQEPSLTVSPGGTVTLTCRSSTGAVTTSNYANWVQQKPGQAPRGLIGGTNKRAPWTPARFSGSLLGGKAALTITGAQAEDEADYYCALWYSNLWVFGGGTKLTVLGGGGSGGGGQVQLVQSGAEVKKPGASVKVSCKASGYTFTGSWMNWVRQAPGQGLEWIGRIYPGDGETNYNGKFKDRVTITADKSTSTAYMELSSLRSEDTAVYYCARIYGNNVYFDVWGQGTTVTVSSGGCGGGEVAALEKEVAALEKEVAALEKEVAALEK
chain 2: DIQLTQSPSFLSASVGDRVTITCSARSSISFMYWYQQKPGKAPKLLIYDTSNLASGVPSRFSGSGSGTEFTLTISSLEAEDAATYYCQQWSSYPLTFGQGTKLEIKGGGSGGGGEVQLVESGGGLVQPGGSLRLSCAASGFTFSTYAMNWVRQAPGKGLEWVGRIRSKYNNYATYYADSVKDRFTISRDDSKNSLYLQMNSLKTEDTAVYYCVRHGNFGNSYVSWFAYWGQGTLVTVSSGGCGGGKVAALKEKVAALKEKVAALKEKVAALKE
- EC50 - CTL Activity, Colo205 Target Cells, LDH Assay, Cyno PBMC [1]: 3.81 ng/mL
- EC50 - CTL Activity, Colo205 Target Cells, Luciferase Assay, Cyno PBMC [1]: 1.55 ng/mL
- EC50 - CTL Activity, Colo205 Target Cells, LDH Assay, Human PBMC [2]: 4.09 ng/mL
- EC50 - CTL Activity, Colo205 Target Cells, Luciferase Assay, Human PBMC [2]: 2.73 ng/mL

B2: gpA33 × CD3 bi-specific monovalent diabody having an Albumin-Binding Domain (DART-2 w/ABD) (bispecific antibody)
chain 1: QAVVTQEPSLTVSPGGTVTLTCRSSTGAVTTSNYANWVQQKPGQAPRGLIGGTNKRAPWTPARFSGSLLGGKAALTITGAQAEDEADYYCALWYSNLWVFGGGTKLTVLGGGGSGGGGQVQLVQSGAEVKKPGASVKVSCKASGYTFTGSWMNWVRQAPGQGLEWIGRIYPGDGETNYNGKFKDRVTITADKSTSTAYMELSSLRSEDTAVYYCARIYGNNVYFDVWGQGTTVTVSSGGCGGGEVAALEKEVAALEKEVAALEKEVAALEKGGGSLAQAKEAAIRELDKYGVSDYYKNLIDNAKSAEGVKALIDEILAALP
chain 2: B1 chain 2
- EC50 - CTL Activity, Colo205 Target Cells, LDH Assay, Cyno PBMC [1]: 4.63 ng/mL
- EC50 - CTL Activity, Colo205 Target Cells, Luciferase Assay, Cyno PBMC [1]: 1.63 ng/mL
- EC50 - CTL Activity, Colo205 Target Cells, LDH Assay, Human PBMC [2]: 5.52 ng/mL
- EC50 - CTL Activity, Colo205 Target Cells, Luciferase Assay, Human PBMC [2]: 3.07 ng/mL

B3: Humanized mAb 1 (antibody, V domains shown)
VH: QVQLVQSGAEVKKPGASVKVSCKASGYTFTGSWMNWVRQAPGQGLEWIGRIYPGDGETNYNGKFKDRVTITADKSTSTAYMELSSLRSEDTAVYYCARIYGNNVYFDVWGQGTTVTVSS
VL: DIQLTQSPSFLSASVGDRVTITCSARSSISFMYWYQQKPGKAPKLLIYDTSNLASGVPSRFSGSGSGTEFTLTISSLEAEDAATYYCQQWSSYPLTFGQGTKLEIK
notes: also called humanized anti-human gpA33 antibody
- Kd (human gpA33): 3.4 nM

B4: Murine mAb 1 (antibody, V domains shown)
VH: QVQLQQSGPELVKPGASVKISCKASGYTFSGSWMNWVKQRPGQGLEWIGRIYPGDGETNYNGKFKDKATLTADKSSTTAYMELSSLTSVDSAVYFCARIYGNNVYFDVWGAGTTVTVSS
VL: QIVLTQSPAIMSASPGERVTMTCSARSSISFMYWYQQKPGSSPRLLIYDTSNLASGVPVRFSGSGSGTSYSLTISRMEAEDAATYYCQQWSSYPLTFGSGTKLELK
notes: also called original murine anti-human gpA33 monoclonal antibody
- Kd (human gpA33): 2.3 nM

B5: Chimeric mAb 1 (antibody, V domains shown)
VH: B4 VH
VL: B4 VL
notes: also called chimericized anti-human gpA33 antibody
- Kd (human gpA33): 2.4 nM

Source: US20160222105A1 (MacroGenics, published 2016)
